# Data as given in PMC9482650, “Quantitative fragmentomics allow affinity mapping of interactomes” (Nature Communications, 2022).
# T1: HTRA3, P83110
# T1 sequence (P83110 354-453, limits assumed, looked up): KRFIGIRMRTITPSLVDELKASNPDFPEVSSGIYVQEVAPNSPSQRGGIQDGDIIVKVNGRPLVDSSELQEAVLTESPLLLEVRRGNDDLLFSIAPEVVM
# T2: RHPN1, Q8TCX5
# T2 sequence (Q8TCX5 508-602, limits assumed, looked up): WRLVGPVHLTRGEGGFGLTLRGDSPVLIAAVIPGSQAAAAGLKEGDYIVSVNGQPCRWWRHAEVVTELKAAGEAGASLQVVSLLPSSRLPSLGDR
# T3: APBA3_1, O96018
# T3 sequence (O96018 389-490, limits assumed, looked up): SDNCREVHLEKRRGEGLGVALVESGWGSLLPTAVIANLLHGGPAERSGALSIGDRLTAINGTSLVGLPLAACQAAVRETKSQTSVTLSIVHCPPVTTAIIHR
# T4: PDZD7_3, Q9H5P4
# T4 sequence (Q9H5P4 857-944, limits assumed, looked up): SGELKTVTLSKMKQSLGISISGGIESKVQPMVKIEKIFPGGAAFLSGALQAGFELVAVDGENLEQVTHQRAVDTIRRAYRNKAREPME
# T5: FRMPD1, Q5SYB0
# T5 sequence (Q5SYB0 52-145, limits assumed, looked up): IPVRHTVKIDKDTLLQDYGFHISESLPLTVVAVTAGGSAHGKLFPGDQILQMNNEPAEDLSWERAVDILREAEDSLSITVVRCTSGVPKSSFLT
# T6: TX1BP3, O14907
# T6 sequence (O14907 10-122, limits assumed, looked up): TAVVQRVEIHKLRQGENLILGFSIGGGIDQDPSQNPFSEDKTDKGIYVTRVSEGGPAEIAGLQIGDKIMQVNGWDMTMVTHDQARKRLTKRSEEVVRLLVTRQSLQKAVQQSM
# T7: SNTG2, Q9NY99
# T7 sequence (Q9NY99 68-166, limits assumed, looked up): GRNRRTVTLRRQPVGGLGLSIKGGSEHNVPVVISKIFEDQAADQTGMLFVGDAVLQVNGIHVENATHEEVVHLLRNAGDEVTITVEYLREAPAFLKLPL
# T8: SNTA1, Q13424
# T8 sequence (Q13424 82-180, limits assumed, looked up): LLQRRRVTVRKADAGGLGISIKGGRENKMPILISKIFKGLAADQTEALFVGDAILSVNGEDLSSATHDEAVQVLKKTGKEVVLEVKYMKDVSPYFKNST
# T9: PTPN13_1, Q12923
# T9 sequence (Q12923 1088-1188, limits assumed, looked up): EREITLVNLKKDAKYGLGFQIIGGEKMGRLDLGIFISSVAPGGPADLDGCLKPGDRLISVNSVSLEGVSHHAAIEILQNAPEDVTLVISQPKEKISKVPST
# T10: DVL3, Q92997
# T10 sequence (Q92997 244-331, limits assumed, looked up): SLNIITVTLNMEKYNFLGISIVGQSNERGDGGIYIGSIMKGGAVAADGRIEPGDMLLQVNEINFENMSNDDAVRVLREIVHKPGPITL
# T11: TJP3_3, O95049
# T11 sequence (O95049 375-456, limits assumed, looked up): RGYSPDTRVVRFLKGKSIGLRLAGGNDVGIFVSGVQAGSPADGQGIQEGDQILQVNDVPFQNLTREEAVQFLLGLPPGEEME
# T12: LIN7C, Q9NUP9
# T12 sequence (Q9NUP9 88-185, limits assumed, looked up): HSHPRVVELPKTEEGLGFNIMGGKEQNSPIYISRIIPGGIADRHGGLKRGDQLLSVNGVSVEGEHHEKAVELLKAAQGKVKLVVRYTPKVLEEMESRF
# Columns and labels:
# Assay in all cases: holdup assay
# Set-up in all cases: key: below the threshold = too weak to quantify, mostly under pKd 3.1 to 4
# Conditions in all cases: plain residues with an end cap or a label only (N-terminal biotin on a linker: ado-ado)
# Inadl_4, Q8NI35 = molecular target: Inadl_4, Q8NI35
# Inadl_4, Q8NI35, sequence (Q8NI35 547-651): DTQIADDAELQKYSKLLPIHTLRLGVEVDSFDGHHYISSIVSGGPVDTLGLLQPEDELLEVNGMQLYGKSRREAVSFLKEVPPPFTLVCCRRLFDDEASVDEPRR
# GRIP2_3, Q9C0E4 = molecular target: GRIP2_3, Q9C0E4
# GRIP2_3, Q9C0E4, sequence (Q9C0E4 238-339): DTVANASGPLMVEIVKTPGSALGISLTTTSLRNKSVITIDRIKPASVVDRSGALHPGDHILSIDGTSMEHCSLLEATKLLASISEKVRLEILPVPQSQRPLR
# DLG2_3, Q15700 = molecular target: DLG2_3, Q15700
# HTRA3, P83110 = molecular target: T1, HTRA3, P83110
# PDZRN4_1, Q6ZMN7 = molecular target: PDZRN4_1, Q6ZMN7
# PDZRN4_1, Q6ZMN7, sequence (Q6ZMN7 213-318): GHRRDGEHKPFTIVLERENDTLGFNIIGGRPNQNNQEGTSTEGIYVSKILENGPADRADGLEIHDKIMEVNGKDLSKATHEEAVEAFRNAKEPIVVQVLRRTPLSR
# RHPN1, Q8TCX5 = molecular target: T2, RHPN1, Q8TCX5
# FRMPD2_1, Q68DX3 = molecular target: FRMPD2_1, Q68DX3
# FRMPD2_1, Q68DX3, sequence (Q68DX3 770-861): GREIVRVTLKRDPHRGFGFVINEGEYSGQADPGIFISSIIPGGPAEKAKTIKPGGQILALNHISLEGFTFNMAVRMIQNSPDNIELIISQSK
# APBA3_1, O96018 = molecular target: T3, APBA3_1, O96018
# PDZD7_3, Q9H5P4 = molecular target: T4, PDZD7_3, Q9H5P4
# PTPN3, P26045 = molecular target: PTPN3, P26045
# PTPN3, P26045, sequence (P26045 505-587): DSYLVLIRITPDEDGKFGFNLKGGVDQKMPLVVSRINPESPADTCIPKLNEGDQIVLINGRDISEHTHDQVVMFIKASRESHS
# GORASP1, Q9BQQ3 = molecular target: GORASP1, Q9BQQ3
# GORASP1, Q9BQQ3, sequence (Q9BQQ3 1-208): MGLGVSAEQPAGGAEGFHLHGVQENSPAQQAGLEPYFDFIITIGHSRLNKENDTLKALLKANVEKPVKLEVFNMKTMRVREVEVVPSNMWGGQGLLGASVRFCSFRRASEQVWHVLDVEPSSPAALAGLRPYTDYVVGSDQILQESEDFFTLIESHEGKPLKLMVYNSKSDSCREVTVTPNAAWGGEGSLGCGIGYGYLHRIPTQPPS
# MAST1, Q9Y2H9 = molecular target: MAST1, Q9Y2H9
# MAST1, Q9Y2H9, sequence (Q9Y2H9 962-1065): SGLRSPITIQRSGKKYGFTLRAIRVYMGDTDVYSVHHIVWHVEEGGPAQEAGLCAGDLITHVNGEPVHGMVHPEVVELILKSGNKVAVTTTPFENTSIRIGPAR
# Inadl_5, Q8NI35 = molecular target: Inadl_5, Q8NI35
# Inadl_5, Q8NI35, sequence (Q8NI35 673-780): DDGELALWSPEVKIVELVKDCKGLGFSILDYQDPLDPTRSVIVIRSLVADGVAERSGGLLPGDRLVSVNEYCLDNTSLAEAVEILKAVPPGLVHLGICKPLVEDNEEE
# FRMPD2_2, Q68DX3 = molecular target: FRMPD2_2, Q68DX3
# FRMPD2_2, Q68DX3, sequence (Q68DX3 944-1038): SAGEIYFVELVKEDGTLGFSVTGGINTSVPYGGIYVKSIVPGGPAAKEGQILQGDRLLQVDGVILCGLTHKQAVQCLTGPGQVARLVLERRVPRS
# FRMPD1, Q5SYB0 = molecular target: T5, FRMPD1, Q5SYB0
# FRMPD3, Q5JV73 = molecular target: FRMPD3, Q5JV73
# FRMPD3, Q5JV73, sequence (Q5JV73 12-100): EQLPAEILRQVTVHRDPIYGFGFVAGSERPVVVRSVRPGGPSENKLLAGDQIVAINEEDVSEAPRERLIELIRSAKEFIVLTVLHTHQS
# MAGI2_4, Q86UL8 = molecular target: MAGI2_4, Q86UL8
# MAGI2_4, Q86UL8, sequence (Q86UL8 772-865): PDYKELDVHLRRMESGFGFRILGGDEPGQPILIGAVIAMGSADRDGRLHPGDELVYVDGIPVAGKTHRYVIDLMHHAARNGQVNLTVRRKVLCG
# TX1BP3, O14907 = molecular target: T6, TX1BP3, O14907
# ARHGEF12, Q9NZN5-2 = molecular target: ARHGEF12, Q9NZN5-2
# ARHGEF12, Q9NZN5-2, sequence (Q9NZN5 other isoform, or with tags, fused parts or gaps): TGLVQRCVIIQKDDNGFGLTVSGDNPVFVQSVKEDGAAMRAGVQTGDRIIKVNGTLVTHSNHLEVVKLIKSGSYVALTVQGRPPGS
# SNTG2, Q9NY99 = molecular target: T7, SNTG2, Q9NY99
# SNTA1, Q13424 = molecular target: T8, SNTA1, Q13424
# PTPN13_1, Q12923 = molecular target: T9, PTPN13_1, Q12923
# DVL3, Q92997 = molecular target: T10, DVL3, Q92997
# TJP3_3, O95049 = molecular target: T11, TJP3_3, O95049
# LIN7C, Q9NUP9 = molecular target: T12, LIN7C, Q9NUP9
"pKd (Inadl_4, Q8NI35)","pKd (GRIP2_3, Q9C0E4)","pKd (DLG2_3, Q15700)","pKd (HTRA3, P83110)","pKd (PDZRN4_1, Q6ZMN7)","pKd (RHPN1, Q8TCX5)","pKd (FRMPD2_1, Q68DX3)","pKd (APBA3_1, O96018)","pKd (PDZD7_3, Q9H5P4)","pKd (PTPN3, P26045)","pKd (GORASP1, Q9BQQ3)","pKd (MAST1, Q9Y2H9)","pKd (Inadl_5, Q8NI35)","pKd (FRMPD2_2, Q68DX3)","pKd (FRMPD1, Q5SYB0)","pKd (FRMPD3, Q5JV73)","pKd (MAGI2_4, Q86UL8)","pKd (TX1BP3, O14907)","pKd (ARHGEF12, Q9NZN5-2)","pKd (SNTG2, Q9NY99)",Binder,other results
below the threshold,below the threshold,below the threshold,below the threshold,below the threshold,below the threshold,below the threshold,below the threshold,below the threshold,3.7,below the threshold,3.91,below the threshold,below the threshold,below the threshold,below the threshold,below the threshold,below the threshold,below the threshold,below the threshold,"DHLGGGGESM [TNRC6A, Q8NDV7]","pKd (SNTA1, Q13424): below the threshold; pKd (PTPN13_1, Q12923): below the threshold; pKd (DVL3, Q92997): below the threshold; pKd (TJP3_3, O95049): below the threshold; pKd (LIN7C, Q9NUP9): 3.95"
below the threshold,below the threshold,4,below the threshold,below the threshold,4.04,below the threshold,below the threshold,4,4.49,below the threshold,4.76,below the threshold,3.97,below the threshold,below the threshold,3.5,3.97,4,below the threshold,"NLQEHSTTSV [RSBN1, Q5VWQ0]","pKd (SNTA1, Q13424): below the threshold; pKd (PTPN13_1, Q12923): below the threshold; pKd (DVL3, Q92997): below the threshold; pKd (TJP3_3, O95049): below the threshold; pKd (LIN7C, Q9NUP9): below the threshold"
below the threshold,below the threshold,below the threshold,3.81,below the threshold,below the threshold,4.14,below the threshold,below the threshold,below the threshold,below the threshold,below the threshold,below the threshold,below the threshold,below the threshold,below the threshold,below the threshold,3.85,3.67,below the threshold,"HLRQQGSVEV [EPHB6, O15197]","pKd (SNTA1, Q13424): below the threshold; pKd (PTPN13_1, Q12923): below the threshold; pKd (DVL3, Q92997): below the threshold; pKd (TJP3_3, O95049): below the threshold; pKd (LIN7C, Q9NUP9): below the threshold"
below the threshold,below the threshold,3.76,4.24,below the threshold,3.58,below the threshold,below the threshold,below the threshold,below the threshold,below the threshold,below the threshold,below the threshold,below the threshold,below the threshold,below the threshold,below the threshold,below the threshold,4.95,below the threshold,"ALPLPQSSTC [IGF1R, P08069]","pKd (SNTA1, Q13424): below the threshold; pKd (PTPN13_1, Q12923): below the threshold; pKd (DVL3, Q92997): below the threshold; pKd (TJP3_3, O95049): below the threshold; pKd (LIN7C, Q9NUP9): below the threshold"
below the threshold,below the threshold,below the threshold,below the threshold,4.3,3.65,below the threshold,below the threshold,3.8,4.82,below the threshold,4.31,below the threshold,below the threshold,below the threshold,3.55,below the threshold,3.87,3.61,below the threshold,"IPGKEFDTPL [PLCB1, Q9NQ66]","pKd (SNTA1, Q13424): 3.51; pKd (PTPN13_1, Q12923): below the threshold; pKd (DVL3, Q92997): below the threshold; pKd (TJP3_3, O95049): below the threshold; pKd (LIN7C, Q9NUP9): below the threshold"
below the threshold,below the threshold,4.41,3.78,4.19,4.48,3.88,below the threshold,5.44,4.47,5.07,5.2,below the threshold,below the threshold,below the threshold,below the threshold,4.26,5.29,5.87,4.35,"REKKFFCTIL [GNG4, P50150]","pKd (SNTA1, Q13424): 4.35; pKd (PTPN13_1, Q12923): below the threshold; pKd (DVL3, Q92997): 4.33; pKd (TJP3_3, O95049): below the threshold; pKd (LIN7C, Q9NUP9): below the threshold"
